Binding result and Kd data for 1 molecule are collected here from publication PMC8402609 (Vaccines, 2021).

Common to all, as to test: SPR
Conditions in all cases: both partners purified

Test [1] concerns the target T1, 3D7 merozoite surface protein 2 (MSP2) (Plasmodium falciparum 3D7, UniProt P50498).
T1 construct: also called 3D7 MSP2; 3D7-MSP2

For test [2], the target named is T2, 8-residue peptide 3D7-MSP2(215-222), minimal 4D11 epitope (Plasmodium falciparum 3D7).
T2 construct: source: synthetic peptide
T2 chain: NKENCGAA

In test [3] the target is T3, 3D7-MSP2(207-222) (WT) 16-residue peptide (Plasmodium falciparum 3D7).
T3 construct: source: synthetic peptide (Fmoc solid phase, in-house, reverse-phase purified)
T3 chain: SQKECTDGNKENCGAA

T1 sequence (P50498 21-246): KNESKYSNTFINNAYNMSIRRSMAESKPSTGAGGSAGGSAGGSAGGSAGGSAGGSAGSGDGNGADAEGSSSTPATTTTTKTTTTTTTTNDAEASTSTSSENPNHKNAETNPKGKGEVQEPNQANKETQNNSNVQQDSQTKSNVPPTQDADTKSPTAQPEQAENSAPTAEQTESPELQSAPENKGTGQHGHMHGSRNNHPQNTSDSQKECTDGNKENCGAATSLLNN

B1: mouse monoclonal antibody 4D11 IgG (antibody, V domains shown)
VH: QVRLQQSGAELVKPGASVKLSCTASGFNIKDDYMHWVKQRPEQGLEWIGRIDPANGNTQYAPKFQDKATITADTSSNTAYLQLTSLTSEDTAVYYCARGGLLRWGQGTSVTVSS
VL: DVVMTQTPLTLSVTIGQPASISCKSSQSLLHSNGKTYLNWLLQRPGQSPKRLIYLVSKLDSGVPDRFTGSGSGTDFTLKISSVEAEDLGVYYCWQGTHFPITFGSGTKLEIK
On to B1, for which, in test [1], the binding result is “binds”. Moreover, the figures for the Kd in test [2] and in test [3] were 240 nM and 900 nM, respectively.
